Results as given in article PMC8544208 (Antibodies, 2021).

Target: T1, C5b6 with bound C7 and C8, assembled on the SPR chip (human | , UniProt P01031 19-673; P01031 752-1676; P13671 22-934; P10643 23-843; P07357 31-584; …)
T1 construct: complement C5 beta chain, as part of C5b; complement C5 alpha' chain of C5b; complement component C6; complement component C7; complement component C8 alpha chain; complement component C8 beta chain; complement component C8 gamma chain; Formed by injecting C7 (4 nM) and then C8 (8 nM) over C5b6 captured on the anti-C5 tool antibody; source: assembled on the SPR chip from bought C5b6, C7 and C8 …
Assay: SPR; MAC assembly assay, Biacore 8K, HBS-EP+; anti-C5 antibody amine coupled to a CM5 chip, C5 or C5b6 captured at 4 nM; C7, C8 and C9 flowed over in succession at 4, 8 and 50 nM, also with single components left out
Conditions: both partners purified

B1: Complement C9 (natural protein)
chain: not shown
notes: complement component C9; Unlabelled C9 as used in SPR; source: bought: Complement Technology (Comptech)
B1: binds.
